Here are results for two substances from article doi:10.1101/2025.05.04.652084.

In test [1] the target is taxol-stabilized porcine brain GDP-microtubules (porcine) (UniProt P02550).
For test [2] the target is unchanged. This is another data set of the same source.

UniProt P02550, sequence (P02550 46-451): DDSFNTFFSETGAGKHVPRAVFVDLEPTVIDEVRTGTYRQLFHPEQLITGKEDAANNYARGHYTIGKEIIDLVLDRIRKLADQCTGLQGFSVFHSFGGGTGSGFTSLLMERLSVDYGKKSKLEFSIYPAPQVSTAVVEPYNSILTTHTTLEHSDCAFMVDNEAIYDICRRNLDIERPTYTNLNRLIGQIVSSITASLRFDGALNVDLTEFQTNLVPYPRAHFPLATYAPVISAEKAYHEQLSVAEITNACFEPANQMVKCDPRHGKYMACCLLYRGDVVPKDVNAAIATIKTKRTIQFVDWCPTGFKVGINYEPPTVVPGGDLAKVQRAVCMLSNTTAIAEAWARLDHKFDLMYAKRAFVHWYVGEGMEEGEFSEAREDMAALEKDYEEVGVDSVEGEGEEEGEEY

In test [1], “MmKIF5A (from UniProt P33175 1-1027) (enzyme)” returned a K (1/2,MT) of the microtubule-stimulated ATPase activity of 2.2 µM. The substance further registered a microtubule detachment rate under load in test [2] of 1.3 s⁻¹.
Turning to GcKIF5A (enzyme), the K (1/2,MT) of the microtubule-stimulated ATPase activity in test [1] stood at 4.2 µM. In test [2], this substance displayed a microtubule detachment rate under load of 3.9 s⁻¹.
